Columns and labels:
[1] = target: ADDoCoV (ADDomer-COVID-19 vaccine) nanoparticle (human adenovirus serotype Ad3 | …, UniProt P0DTC2)
[2] = target: SARS-CoV-2 S receptor binding domain, Ancestral (SARS-CoV-2, Ancestral strain, UniProt P0DTC2)

Binder	binding result [1]	binding result [2]
ADAH15 (VHH) VHH: QVQLQESGGGLVQAGGSLRLSCAASGTTYLAANMGWFRQAPGKEREFVAAITFFHNPTVYYADSVKGRFTISRDNAKNTVYLQMNSLKPEDTAVYYCAATVLVRDRIHFSHSIGIRYWGQGTQVTVSS	binds	binds
ADAH14 (VHH) VHH: QVQLQESGGGLVQAGGSLRLSCAASGSYFFHALMGWFRQAPVKEREFVASITAVPGATYYRRCTDSVKGRFTISRDNAKNTVYLQMNSLKPEDTAVYYCALATHSNRHTPITYWGQGTQVTVSS	binds	binds

— article PMC10702856 (Antibody Therapeutics, 2023)
